Measured values: article PMC11257983 (2024)

B1: Flag-CNK^2–549 [Drosophila] / GST-HYP [Drosophila] (parent complex)
chain 1: AYINIAEWTPDQVTDWIKGLDESMKGYLYEFSKQEIGGRALLNIRPYELENLGMLRIGHQEIVLEAVENLRNFHYHLKNDNLQFMALHVATAAKNLHRELARNHAESTKIDTRILHDITRTIATLKPLVGSLERTPFRKQEMYREYCGNVLKCGLELATIAHRDRFALQPVPAIRQSAERLENLANFVIQDISDPMVLQPASLNLVTLKKRESELGFNIESSYNGIHRVTDIKYNSPAHNSGKIEDGDEIVQINYQTVVGWQHRTVLEHLREALPDVVLTVKKRPKHTKMFGQIYMQPYRLPSKKRNMAARWAAQMPSPRAAFLTLDTEQLATGGTGSAVPDPSKSLSSEKREVLTKANPVSSASDSDSSCSDIPTPTDPKLAAREIRLYYPKPRALLQRRNTICGCEYLSLKNSDLVVPSWHERKPGIGSPTNCDPGSPSIRDKSISFGYGLEMAARPTTCIGIAGDTSTDKARRMFHEARKLKQLTEDSQREFLVDRYKPGVSKVVRFDAKEDYVMKNEKFICNVENTILETFEPIPFADEGDEDA
chain 2: MGEETINSTQNKTRTKTTRPKAVYLWTVSDVLKWYRRHCGEYTQYEQLFAQHDITGRALLRITDSSLQRMGVTDNRDREAIWREIVKQRLKTDIMEIRDMERLNIY

Variants of: B1
Assay: GST pull-down, immunoblot quantification; S2 cells; only GST-HYP and Flag-CNK2–549 co-expressed; anti-Flag blot; parent: 1

ratio to parent	Variant
0.17	chain 1 AYINIAEWTPDQVTDWIKGLDESMKGYLYEFSKQEIGGRALLNIRPYELENLGMLRIGHQEIVLEAVENLRNFHYHLKNDNLQFMALHVATAAKNLHRELARNHAESTKIDTRILHDITRTDATLKPLVGSLERTPFRKQEMYREYCGNVLKCGLELATIAHRDRFALQPVPAIRQSAERLENLANFVIQDISDPMVLQPASLNLVTLKKRESELGFNIESSYNGIHRVTDIKYNSPAHNSGKIEDGDEIVQINYQTVVGWQHRTVLEHLREALPDVVLTVKKRPKHTKMFGQIYMQPYRLPSKKRNMAARWAAQMPSPRAAFLTLDTEQLATGGTGSAVPDPSKSLSSEKREVLTKANPVSSASDSDSSCSDIPTPTDPKLAAREIRLYYPKPRALLQRRNTICGCEYLSLKNSDLVVPSWHERKPGIGSPTNCDPGSPSIRDKSISFGYGLEMAARPTTCIGIAGDTSTDKARRMFHEARKLKQLTEDSQREFLVDRYKPGVSKVVRFDAKEDYVMKNEKFICNVENTILETFEPIPFADEGDEDA [chain 1 I122D]
0.76	chain 1 AYINIAEWTPDQVTDWIKGLDESMKGYLYEFSKQEIGGRALLNIRPYELENLGMLRIGHQEIVLEAVENLRNFHYHLKNDNLQFMALHVATAAKNLHRELARNHAESTKIDTRILHDITRTIATLKPLVGSLERTPFRKQEMYREYCGNVDKCGLELATIAHRDRFALQPVPAIRQSAERLENLANFVIQDISDPMVLQPASLNLVTLKKRESELGFNIESSYNGIHRVTDIKYNSPAHNSGKIEDGDEIVQINYQTVVGWQHRTVLEHLREALPDVVLTVKKRPKHTKMFGQIYMQPYRLPSKKRNMAARWAAQMPSPRAAFLTLDTEQLATGGTGSAVPDPSKSLSSEKREVLTKANPVSSASDSDSSCSDIPTPTDPKLAAREIRLYYPKPRALLQRRNTICGCEYLSLKNSDLVVPSWHERKPGIGSPTNCDPGSPSIRDKSISFGYGLEMAARPTTCIGIAGDTSTDKARRMFHEARKLKQLTEDSQREFLVDRYKPGVSKVVRFDAKEDYVMKNEKFICNVENTILETFEPIPFADEGDEDA [chain 1 L151D]

Variants of: B1
Assay: GST pull-down, immunoblot quantification; S2 cells; GST-HYP, Flag-CNK2–549 + RRKM co-expressed; anti-Flag (CNK) blot; parent: 1

ratio to parent	Variant
0.63	chain 1 AYINIAEWTPDQVTDWIKGLDESMKGYLYEFSKQEIGGRALLNIRPYELENLGMLRIGHQEIVLEAVENLRNFHYHLKNDNLQFMALHVATAAKNLHRELARNHAESTKIDTRILHDITRTDATLKPLVGSLERTPFRKQEMYREYCGNVLKCGLELATIAHRDRFALQPVPAIRQSAERLENLANFVIQDISDPMVLQPASLNLVTLKKRESELGFNIESSYNGIHRVTDIKYNSPAHNSGKIEDGDEIVQINYQTVVGWQHRTVLEHLREALPDVVLTVKKRPKHTKMFGQIYMQPYRLPSKKRNMAARWAAQMPSPRAAFLTLDTEQLATGGTGSAVPDPSKSLSSEKREVLTKANPVSSASDSDSSCSDIPTPTDPKLAAREIRLYYPKPRALLQRRNTICGCEYLSLKNSDLVVPSWHERKPGIGSPTNCDPGSPSIRDKSISFGYGLEMAARPTTCIGIAGDTSTDKARRMFHEARKLKQLTEDSQREFLVDRYKPGVSKVVRFDAKEDYVMKNEKFICNVENTILETFEPIPFADEGDEDA [chain 1 I122D]
0.33	chain 1 AYINIAEWTPDQVTDWIKGLDESMKGYLYEFSKQEIGGRALLNIRPYELENLGMLRIGHQEIVLEAVENLRNFHYHLKNDNLQFMALHVATAAKNLHRELARNHAESTKIDTRILHDITRTIATLKPLVGSLERTPFRKQEMYREYCGNVDKCGLELATIAHRDRFALQPVPAIRQSAERLENLANFVIQDISDPMVLQPASLNLVTLKKRESELGFNIESSYNGIHRVTDIKYNSPAHNSGKIEDGDEIVQINYQTVVGWQHRTVLEHLREALPDVVLTVKKRPKHTKMFGQIYMQPYRLPSKKRNMAARWAAQMPSPRAAFLTLDTEQLATGGTGSAVPDPSKSLSSEKREVLTKANPVSSASDSDSSCSDIPTPTDPKLAAREIRLYYPKPRALLQRRNTICGCEYLSLKNSDLVVPSWHERKPGIGSPTNCDPGSPSIRDKSISFGYGLEMAARPTTCIGIAGDTSTDKARRMFHEARKLKQLTEDSQREFLVDRYKPGVSKVVRFDAKEDYVMKNEKFICNVENTILETFEPIPFADEGDEDA [chain 1 L151D]

Variants of: B1
Assay: GST pull-down, immunoblot quantification; S2 cells; GST-HYP + RRKM co-expressed; anti-Flag (CNK) blot; parent: 1

ratio to parent	Variant
0.94	chain 1 AYINIAEWTPDQVTDWIKGLDESMKGYLYEFSKQEIGGRALLNIRPYELENLGMLRIGHQEIVLEAVENLRNRHYHLKNDNLQFMALHVATAAKNLHRELARNHAESTKIDTRILHDITRTIATLKPLVGSLERTPFRKQEMYREYCGNVLKCGLELATIAHRDRFALQPVPAIRQSAERLENLANFVIQDISDPMVLQPASLNLVTLKKRESELGFNIESSYNGIHRVTDIKYNSPAHNSGKIEDGDEIVQINYQTVVGWQHRTVLEHLREALPDVVLTVKKRPKHTKMFGQIYMQPYRLPSKKRNMAARWAAQMPSPRAAFLTLDTEQLATGGTGSAVPDPSKSLSSEKREVLTKANPVSSASDSDSSCSDIPTPTDPKLAAREIRLYYPKPRALLQRRNTICGCEYLSLKNSDLVVPSWHERKPGIGSPTNCDPGSPSIRDKSISFGYGLEMAARPTTCIGIAGDTSTDKARRMFHEARKLKQLTEDSQREFLVDRYKPGVSKVVRFDAKEDYVMKNEKFICNVENTILETFEPIPFADEGDEDA [chain 1 F73R]

Variants of: B1
Assay: GST pull-down, immunoblot quantification; S2 cells; only Flag-CNK2–549 and GST-HYP co-expressed; anti-Flag blot; parent: 1

ratio to parent	Variant
0.91	chain 1 AYINIAEWTPDQVTDWIKGLDESMKGYLYEFSKQEIGGRALLNIRPYELENLGMLRIGHQEIVLEAVENLRNRHYHLKNDNLQFMALHVATAAKNLHRELARNHAESTKIDTRILHDITRTIATLKPLVGSLERTPFRKQEMYREYCGNVLKCGLELATIAHRDRFALQPVPAIRQSAERLENLANFVIQDISDPMVLQPASLNLVTLKKRESELGFNIESSYNGIHRVTDIKYNSPAHNSGKIEDGDEIVQINYQTVVGWQHRTVLEHLREALPDVVLTVKKRPKHTKMFGQIYMQPYRLPSKKRNMAARWAAQMPSPRAAFLTLDTEQLATGGTGSAVPDPSKSLSSEKREVLTKANPVSSASDSDSSCSDIPTPTDPKLAAREIRLYYPKPRALLQRRNTICGCEYLSLKNSDLVVPSWHERKPGIGSPTNCDPGSPSIRDKSISFGYGLEMAARPTTCIGIAGDTSTDKARRMFHEARKLKQLTEDSQREFLVDRYKPGVSKVVRFDAKEDYVMKNEKFICNVENTILETFEPIPFADEGDEDA [chain 1 F73R]
